Laboratory results from doi:10.1101/2020.11.13.382242.
Where “and” joins values, the source holds several entries; their conditions need not be identical. Equal values may be shown once.

How the values were obtained:
Test in all cases: fluorescence fluctuation spectroscopy
[1] = molecular target: Full-length GFP-CPSF6 (isoform 2; cell-free expressed, N-terminal GFP tag)
[2] = molecular target: HIV-1 capsid particles self-assembled from CA [change] (disulfide cross-linked cones and tubes) (HIV-1)
[3] = molecular target: AF568-labelled HIV-1 capsid particles co-assembled from CA [change] and CA [change]-AF568 (HIV-1)

Sequence of Full-length GFP-CPSF6 (isoform 2; cell-free expressed, N-terminal GFP tag) (Q16630 whole entry, canonical isoform): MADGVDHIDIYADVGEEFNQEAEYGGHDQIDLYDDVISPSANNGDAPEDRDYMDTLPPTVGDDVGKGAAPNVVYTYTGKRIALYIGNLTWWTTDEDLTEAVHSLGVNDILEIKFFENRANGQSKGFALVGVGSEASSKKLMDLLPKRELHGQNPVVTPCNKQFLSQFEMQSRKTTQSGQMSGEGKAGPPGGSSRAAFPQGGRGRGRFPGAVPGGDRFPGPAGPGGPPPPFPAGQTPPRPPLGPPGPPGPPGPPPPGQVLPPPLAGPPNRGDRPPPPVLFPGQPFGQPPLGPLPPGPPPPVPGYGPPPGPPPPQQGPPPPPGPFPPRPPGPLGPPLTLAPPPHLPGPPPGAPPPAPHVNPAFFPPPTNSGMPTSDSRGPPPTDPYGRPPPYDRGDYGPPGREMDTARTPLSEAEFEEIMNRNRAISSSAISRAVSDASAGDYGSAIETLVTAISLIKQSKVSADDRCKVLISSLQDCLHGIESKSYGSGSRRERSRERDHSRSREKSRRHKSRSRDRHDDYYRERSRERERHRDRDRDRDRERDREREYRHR

| Substance | fold increase in the brightness parameter compared to monomeric GFP [1] | fold increase in the brightness parameter in the presence of capsid [2] [fold] | Kd [3] [µM] | analyte:CA intensity ratio relative to CPSF6-AF488 [3] [fold] |
| --- | --- | --- | --- | --- |
| Full-length GFP-CPSF6 (isoform 2; cell-free expressed, N-terminal GFP tag) (natural protein) | 4 fold and 8 fold | 10 | – | – |
| Untagged recombinant CypA labelled with Alexa Fluor 488-C5 maleimide (from UniProt P62937 1-165) (natural protein) | – | – | 16.5 | 5 |
